Legend:
Assay in all cases: purified protein
purified protein [1] = substrate: NNC(=O)c1ccncc1; conditions: pH 7.5
purified protein [2] = substrate: NC(=O)c1ccc[n+]([C@@H]2O[C@H](COP(=O)(O)OP(=O)(O)OC[C@H]3O[C@@H](n4cnc5c(N)ncnc54)[C@H](O)[C@@H]3O)[C@@H](O)[C@H]2O)c1; conditions: pH 7.5
purified protein [3] = substrate: COc1cc(-c2ccc(N)c(OC)c2)ccc1N; conditions: pH 5.5

B1: WT-KatG (Mt-KatG, Mycobacterium tuberculosis catalase-peroxidase) (Mycobacterium tuberculosis H37Rv) (protein)
chain: MPEQHPPITETTTGAASNGCPVVGHMKYPVEGGGNQDWWPNRLNLKVLHQNPAVADPMGAAFDYAAEVATIDVDALTRDIEEVMTTSQPWWPADYGHYGPLFIRMAWHAAGTYRIHDGRGGAGGGMQRFAPLNSWPDNASLDKARRLLWPVKKKYGKKLSWADLIVFAGNCALESMGFKTFGFGFGRVDQWEPDEVYWGKEATWLGDERYSGKRDLENPLAAVQMGLIYVNPEGPNGNPDPMAAAVDIRETFRRMAMNDVETAALIVGGHTFGKTHGAGPADLVGPEPEAAPLEQMGLGWKSSYGTGTGKDAITSGIEVVWTNTPTKWDNSFLEILYGYEWELTKSPAGAWQYTAKDGAGAGTIPDPFGGPGRSPTMLATDLSLRVDPIYERITRRWLEHPEELADEFAKAWYKLIHRDMGPVARYLGPLVPKQTLLWQDPVPAVSHDLVGEAEIASLKSQIRASGLTVSQLVSTAWAAASSFRGSDKRGGANGGRIRLQPQVGWEVNDPDGDLRKVIRTLEEIQESFNSAAPGNIKVSFADLVVLGGCAAIEKAAKAAGHNITVPFTPGRTDASQEQTDVESFAVLEPKADGFRNYLGKGNPLPAEYMLLDKANLLTLSAPEMTVLVGGLRVLGANYKRLPLGVFTEASESLTNDFFVNLLDMGITWEPSPADDGTYQGKDGSGKVKWTGSRVDLVFGSNSELRALVEVYGADDAQPKFVQDFVAAWDKVMNLDRFDVR
Km (purified protein [1]): 1900 ± 100 µM
kcat/Km (purified protein [1]): 50.6 M⁻¹ s⁻¹
Km (purified protein [2]): 210 ± 40 µM
kcat/Km (purified protein [2]): 443 M⁻¹ s⁻¹
Km (purified protein [3]): 2.1 ± 0.8 µM
kcat/Km (purified protein [3]): 3.1e+06 M⁻¹ s⁻¹

— publication PMC10839757
